For 1 molecule, Kd results are on record in paper PMC5419587 (Virology, 2017).

For orientation: Kd means the constant that tells how readily two partners part at equilibrium. Lower therefore signals higher affinity.

This experiment has as its target T1, SAMD9 1-385, purified (human, UniProt Q5K651 1-385).
T1 sequence (looked up): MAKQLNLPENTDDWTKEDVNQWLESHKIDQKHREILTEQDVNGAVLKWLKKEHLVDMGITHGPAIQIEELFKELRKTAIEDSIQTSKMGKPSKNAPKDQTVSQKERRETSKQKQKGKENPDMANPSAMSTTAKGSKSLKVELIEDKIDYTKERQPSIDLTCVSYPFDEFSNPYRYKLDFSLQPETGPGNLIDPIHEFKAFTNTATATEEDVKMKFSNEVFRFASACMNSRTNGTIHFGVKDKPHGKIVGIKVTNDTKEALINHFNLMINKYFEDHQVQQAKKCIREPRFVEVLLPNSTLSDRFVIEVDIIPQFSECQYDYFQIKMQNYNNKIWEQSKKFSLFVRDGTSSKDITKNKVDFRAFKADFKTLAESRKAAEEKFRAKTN
Kind of experiment: SPR. (In SPR one partner is held on a chip, and binding of the other changes the refractive index at the surface.)

B1: MYXV M062 protein, purified (natural protein)
chain: MGVQHKLDIFLVSEGIAIKEANLLKGDSYGCTIKIKLDKEKTFKFVIVLEPEWIDEIKPIYMKVNDESVELELDYKDAIKRIYSAEVVLCSDSVINLFSDVDVSYTCEYPTIKVNTIKKYYSVQNRGMTYVHIESPINTKDKCWFVEKNGWYEDRTHS
In the case of B1, binding was characterised by a dissociation constant (Kd) of 10 ± 5 µM.
